In patent publication US20220347309A1 (ADC THERAPEUTICS, published 2022):

Target: T1, CD25 on human anaplastic large cell lymphoma Karpas-299 cells (human, UniProt P01589 22-272)
T1 construct: whole, on cells; Endogenous antigen on the cell line
T1 sequence (looked up): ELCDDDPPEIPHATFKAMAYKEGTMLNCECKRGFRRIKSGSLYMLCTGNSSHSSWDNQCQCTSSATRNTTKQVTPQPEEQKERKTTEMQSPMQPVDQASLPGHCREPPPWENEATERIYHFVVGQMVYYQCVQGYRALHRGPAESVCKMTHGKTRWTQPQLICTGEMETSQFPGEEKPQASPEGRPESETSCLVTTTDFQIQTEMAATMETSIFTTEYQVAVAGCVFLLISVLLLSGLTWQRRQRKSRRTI
Assay: flow cytometry, serial dilution of antibody on Karpas-299 wt, ADCR and PBDR cells, Alexa Fluor 488 anti-human Fc secondary
Protocol: The cells were then washed and incubated with a F(ab′)2-Goat anti-Human IgG Fc Secondary Antibody conjugated to Alexa Fluor 488. After incubation for 1 hour on ice in the dark the cells were washed and run on a Fortessa X20 flow cytometer, and the mean fluorescence intensity (MFI) determined using the B530/30 laser/filter.

B1: HuMax-TAC mAb (antibody, V domains shown)
VH: QVQLVQSGAEVKKPGSSVKVSCKASGGTFSRYIINWVRQAPGQGLEWMGRIIPILGVENYAQKFQGRVTITADKSTSTAYMELSSLRSEDTAVYYCARKDWFDYWGQGTLVTVSS
VL: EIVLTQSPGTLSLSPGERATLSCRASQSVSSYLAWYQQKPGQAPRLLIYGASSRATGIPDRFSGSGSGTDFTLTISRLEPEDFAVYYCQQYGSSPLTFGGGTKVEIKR
notes: also called AB12; CD25 antibody
Q: Does B1 bind?
A: Result: binds
